From IntAct's records for PubMed 22416126

B1: Paraspeckle component 1 (Homo sapiens), Q8WXF1-1 (parent)
chain: MMLRGNLKQVRIEKNPARLRALESAVGESEPAAAAAMALALAGEPAPPAPAPPEDHPDEEMGFTIDIKSFLKPGEKTYTQRCRLFVGNLPTDITEEDFKRLFERYGEPSEVFINRDRGFGFIRLESRTLAEIAKAELDGTILKSRPLRIRFATHGAALTVKNLSPVVSNELLEQAFSQFGPVEKAVVVVDDRGRATGKGFVEFAAKPPARKALERCGDGAFLLTTTPRPVIVEPMEQFDDEDGLPEKLMQKTQQYHKEREQPPRFAQPGTFEFEYASRWKALDEMEKQQREQVDRNIREAKEKLEAEMEAARHEHQLMLMRQDLMRRQEELRRLEELRNQELQKRKQIQLRHEEEHRRREEEMIRHREQEELRRQQEGFKPNYMENREQEMRMGDMGPRGAINMGDAFSPAPAGNQGPPPMMGMNMNNRATIPGPPMGPGPAMGPEGAANMGTPMMPDNGAVHNDRFPQGPPSQMGSPMGSRTGSETPQAPMSGVGPVSGGPGGFGRGSQGGNFEGPNKRRRY
partner: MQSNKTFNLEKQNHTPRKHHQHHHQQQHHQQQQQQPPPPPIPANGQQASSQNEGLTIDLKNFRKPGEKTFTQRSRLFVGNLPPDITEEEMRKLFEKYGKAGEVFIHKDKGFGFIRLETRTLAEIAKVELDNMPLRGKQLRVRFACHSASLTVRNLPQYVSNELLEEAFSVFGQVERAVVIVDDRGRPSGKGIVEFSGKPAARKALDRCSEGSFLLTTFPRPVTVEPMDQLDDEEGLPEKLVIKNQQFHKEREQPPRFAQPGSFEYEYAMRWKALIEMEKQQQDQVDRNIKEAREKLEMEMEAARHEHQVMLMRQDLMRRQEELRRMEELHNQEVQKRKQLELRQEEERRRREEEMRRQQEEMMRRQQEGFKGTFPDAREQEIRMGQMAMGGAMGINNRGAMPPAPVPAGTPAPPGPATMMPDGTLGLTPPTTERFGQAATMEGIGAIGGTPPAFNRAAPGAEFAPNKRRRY
B2: Non-POU domain-containing octamer-binding protein (Homo sapiens), Q15233 (parent)
chain: B1 partner
partner: B1 chain

Variants of: B1
Conditions: with nono_human NONO

effect of a mutation on the interaction | Variant
decreasing interaction strength | MMLRGNLKQVRIEKNPARLRALESAVGESEPAAAAAMALALAGEPAPPAPAPPEDHPDEEMGFTIDIKSFLKPGEKTYTQRCRLFVGNLPTDITEEDFKRLFERYGEPSEVFINRDRGFGFIRLESRTLAEIAKAELDGTILKSRPLRIRFATHGAALTVKNLSPVVSNELLEQAFSQFGPVEKAVVVVDDRGRATGKGFVEFAAKPPARKALERCGDGAFLLTTTPRPVIVEPMEQFDDEDGLPEKLMQKTQQYHKEREQPPRFAQPGTFEFEAASRAKALDEMEKQQREQVDRNIREAKEKLEAEMEAARHEHQLMLMRQDLMRRQEELRRLEELRNQELQKRKQIQLRHEEEHRRREEEMIRHREQEELRRQQEGFKPNYMENREQEMRMGDMGPRGAINMGDAFSPAPAGNQGPPPMMGMNMNNRATIPGPPMGPGPAMGPEGAANMGTPMMPDNGAVHNDRFPQGPPSQMGSPMGSRTGSETPQAPMSGVGPVSGGPGGFGRGSQGGNFEGPNKRRRY [Y275A;W279A]

Variants of: B2
Conditions: with PSPC1, Q8WXF1-1

effect of a mutation on the interaction | Variant
decreasing interaction strength | MQSNKTFNLEKQNHTPRKHHQHHHQQQHHQQQQQQPPPPPIPANGQQASSQNEGLTIDLKNFRKPGEKTFTQRSRLFVGNLPPDITEEEMRKLFEKYGKAGEVFIHKDKGFGFIRLETRTLAEIAKVELDNMPLRGKQLRVRFACHSASLTVRNLPQYVSNELLEEAFSVFGQVERAVVIVDDRGRPSGKGIVEFSGKPAARKALDRCSEGSFLLTTFPRPVTVEPMDQLDDEEGLPEKLVIKNQQFHKEREQPPRFAQPGSFEYEAAMRAKALIEMEKQQQDQVDRNIKEAREKLEMEMEAARHEHQVMLMRQDLMRRQEELRRMEELHNQEVQKRKQLELRQEEERRRREEEMRRQQEEMMRRQQEGFKGTFPDAREQEIRMGQMAMGGAMGINNRGAMPPAPVPAGTPAPPGPATMMPDGTLGLTPPTTERFGQAATMEGIGAIGGTPPAFNRAAPGAEFAPNKRRRY [Y267A;W271A]
